Results on 50 sequences are retold here after the supplement of paper PMC9112550, “Optimization of the antimicrobial peptide Bac7 by deep mutational scanning” (BMC Biology, 2022).
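Note: peptides expressed intracellularly from a pBAD plasmid library in pooled LB shake-flask culture, induced with 0.3% L-arabinose, DNA abundance read by NGS, three biological replicates, DESeq2 with apeglm shrinkage.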

The series concerns Escherichia coli TOP10. The series can be described thus: shrunken log2 fold change of peptide-encoding DNA abundance (4.5 h post-induction vs induction); higher = less antimicrobial activity (less host growth inhibition). The settings on record: time post-induction: 4.5 h; library: site-saturation at positions 5, 18, 19, 20.
RRIRSRPPRLPRPRPRPLLKPRP: the “shrunken log2 fold change” value came out at 0.253. For RRIRNRPPRLPRPRPRPRPGPRP the value was 0.638; for RRIRNRPPRLPRPRPRPMGFPRP, -0.0516; for RRIRLRPPRLPRPRPRPRHYPRP, -0.127. For RRIRFRPPRLPRPRPRPQNIPRP the value was -0.411. For the sequence RRIRWRPPRLPRPRPRPTPPPRP, the “shrunken log2 fold change” value is 0.639.

Regarding RRIRKRPPRLPRPRPRPADVPRP, the “shrunken log2 fold change” value is 0.127. In the case of RRIRTRPPRLPRPRPRPAMMPRP, the “shrunken log2 fold change” value is -0.109. For RRIRYRPPRLPRPRPRPKVIPRP the value was -0.102; for RRIRKRPPRLPRPRPRPGGEPRP, 0.753. For RRIRIRPPRLPRPRPRPIIFPRP the value was -0.667; for RRIRRRPPRLPRPRPRPNDCPRP, 0.264.

As to RRIRNRPPRLPRPRPRPQFWPRP, the “shrunken log2 fold change” value came out at 0.0339.

Consider RRIRCRPPRLPRPRPRPNTCPRP, for which the “shrunken log2 fold change” value is -0.463.

Consider RRIRSRPPRLPRPRPRPHEPPRP, for which the “shrunken log2 fold change” value was -0.154.

For the sequence RRIRLRPPRLPRPRPRPKDFPRP, the “shrunken log2 fold change” value was 0.0642. With RRIRERPPRLPRPRPRPTLCPRP, the “shrunken log2 fold change” value stood at 0.259. For RRIRARPPRLPRPRPRPTDNPRP the value was 0.152; for RRIRMRPPRLPRPRPRPMRHPRP, 0.452. On to RRIRKRPPRLPRPRPRPLTQPRP, for which the “shrunken log2 fold change” value was 0.198. For RRIRKRPPRLPRPRPRPMIHPRP the value was -0.00347; for RRIRTRPPRLPRPRPRPPKIPRP, -0.112. The figure for RRIRLRPPRLPRPRPRPVCYPRP is -0.156. For RRIRARPPRLPRPRPRPFSIPRP the value was 0.111; for RRIRERPPRLPRPRPRPAPQPRP, 0.31. As to RRIRGRPPRLPRPRPRPDYQPRP, the “shrunken log2 fold change” value was -0.418. For RRIRDRPPRLPRPRPRPKKNPRP the value was 0.125; for RRIRQRPPRLPRPRPRPPHLPRP, 0.205. Take RRIRCRPPRLPRPRPRPIRTPRP: the “shrunken log2 fold change” value is -0.673. For RRIRPRPPRLPRPRPRPLGMPRP the value was -0.0753. As to RRIRERPPRLPRPRPRPRADPRP, the “shrunken log2 fold change” value was 0.0209.

On to RRIRGRPPRLPRPRPRPAAHPRP, for which the “shrunken log2 fold change” value was 0.807. With RRIRARPPRLPRPRPRPTKIPRP, the “shrunken log2 fold change” value came out at 0.272. The figure for RRIRSRPPRLPRPRPRPDMEPRP is 0.0134; for RRIRPRPPRLPRPRPRPDDEPRP it is 0.331; for RRIRTRPPRLPRPRPRPKNAPRP it is 0.0264. For RRIRARPPRLPRPRPRPAYCPRP the value was -0.00541; for RRIRNRPPRLPRPRPRPVWNPRP, -0.0723. The figure for RRIRNRPPRLPRPRPRPPDRPRP is 0.00517; for RRIRQRPPRLPRPRPRPWIFPRP it is -0.0561; for RRIRTRPPRLPRPRPRPDVEPRP it is 0.053. RRIRNRPPRLPRPRPRPGTKPRP: the “shrunken log2 fold change” value was determined as 0.0372. For RRIRFRPPRLPRPRPRPAPLPRP the value was 0.516; for RRIRSRPPRLPRPRPRPEIQPRP, 0.00278; for RRIRTRPPRLPRPRPRPTYKPRP, -0.651. The figure for RRIRIRPPRLPRPRPRPHNDPRP is -0.55. The figure for RRIRWRPPRLPRPRPRPKPLPRP is 0.375; for RRIRRRPPRLPRPRPRPRVEPRP it is 0.662; for RRIRLRPPRLPRPRPRPSSAPRP it is -0.0182.

With RRIRLRPPRLPRPRPRPWPNPRP, the “shrunken log2 fold change” value was -0.0032.
